This note sets out measurements from article PMC8600288.

This experiment addresses AlyA3, PL17 alginate lyase from Zobellia galactanivorans DsijT (recombinant, His-tagged, without signal peptide) (Zobellia galactanivorans DsijT). Description: SEC.

With “AlyA3, PL17 alginate lyase from Zobellia galactanivorans DsijT (recombinant, His-tagged, without signal peptide) (enzyme)”, the stoichiometry N came to 2.
